Values of other authors as cited in PMC11054419.
pKd: −log10 of the molar value.

Assays:
TGF-β3 (Homo sapiens) = TGF-β3 (Homo sapiens) (UniProt P10600)
TGF-β2 (Homo sapiens) = TGF-β2 (Homo sapiens) (UniProt P61812)
TGF-β1 (Homo sapiens) = TGF-β1 (Homo sapiens) (UniProt P01137)

Measured: pKd

TβRIII (betaglycan), sequence (Q03167 21-787): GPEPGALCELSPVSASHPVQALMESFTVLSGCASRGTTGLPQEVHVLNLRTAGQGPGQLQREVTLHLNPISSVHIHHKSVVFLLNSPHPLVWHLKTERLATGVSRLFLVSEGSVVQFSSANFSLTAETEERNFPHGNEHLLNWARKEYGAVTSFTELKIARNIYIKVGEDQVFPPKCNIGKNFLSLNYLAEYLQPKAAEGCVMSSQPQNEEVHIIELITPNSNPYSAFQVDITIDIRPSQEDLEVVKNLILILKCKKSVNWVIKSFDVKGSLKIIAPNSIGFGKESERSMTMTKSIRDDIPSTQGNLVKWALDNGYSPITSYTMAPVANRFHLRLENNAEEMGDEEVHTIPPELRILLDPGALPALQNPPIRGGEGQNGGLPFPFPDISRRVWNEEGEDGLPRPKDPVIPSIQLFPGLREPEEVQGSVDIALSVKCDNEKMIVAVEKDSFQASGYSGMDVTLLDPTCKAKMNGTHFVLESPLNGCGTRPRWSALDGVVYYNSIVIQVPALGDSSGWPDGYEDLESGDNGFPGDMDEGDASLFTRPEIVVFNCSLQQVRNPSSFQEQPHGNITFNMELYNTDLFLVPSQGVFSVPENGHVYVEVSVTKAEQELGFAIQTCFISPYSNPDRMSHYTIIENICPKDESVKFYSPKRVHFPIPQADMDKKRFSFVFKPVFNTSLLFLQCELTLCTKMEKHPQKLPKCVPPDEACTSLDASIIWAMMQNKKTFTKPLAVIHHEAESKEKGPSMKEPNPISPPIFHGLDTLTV
TGF-β1 (Homo sapiens), sequence (P01137 279-390): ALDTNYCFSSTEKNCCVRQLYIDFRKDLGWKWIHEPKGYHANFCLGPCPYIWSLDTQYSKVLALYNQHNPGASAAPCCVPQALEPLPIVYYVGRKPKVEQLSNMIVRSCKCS
TGF-β3 (Homo sapiens), sequence (P10600 301-412): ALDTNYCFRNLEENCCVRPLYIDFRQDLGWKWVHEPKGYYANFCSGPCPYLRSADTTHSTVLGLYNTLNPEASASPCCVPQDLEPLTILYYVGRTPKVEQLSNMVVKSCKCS
TGF-β2 (Homo sapiens), sequence (P61812 303-414): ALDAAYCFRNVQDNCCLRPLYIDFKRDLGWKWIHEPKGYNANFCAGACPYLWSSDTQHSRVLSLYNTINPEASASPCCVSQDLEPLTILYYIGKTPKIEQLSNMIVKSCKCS

TβRIII (betaglycan) (from UniProt Q03167)
10.00: all assays above
